This note sets out measurements from the supplement of paper PMC7125110.

B1: glmS ribozyme (parent)
chain: AUAAAAGCGCCAGAACUACAGAAAUGUAGUUGACGAGGAGGAGGUUUAUCGAAUUUUCGGCGGAUGCCUCCAAA

± gives the standard error. Variants at the floor of the assay were thinned out.

The variants in the data set derive from B1. The experiment in a line: self-cleavage kobs at 10000 uM GlcN6P; higher = faster cleavage; RNA array. As to conditions: with glucosamine-6-phosphate. The essentials:
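Glucosamine-6-phosphate, from 40 μM to 10 mM in HEPES/KCl/Mg(OAc)2 buffer, was flowed over sequenced MiSeq chips carrying barcoded ribozyme variants transcribed in situ by E. coli RNA polymerase. A hybridised Cy3 probe tracked the variants at 37 °C as tiles were imaged over ~14 h. kobs, kcat and KM were obtained by fitting normalised per-tile medians to exponential decays and then applying weighted Michaelis–Menten fits across concentrations.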
Consider U31A A42G U46C, for which the “self-cleavage kobs at 10000 uM GlcN6P” value was determined as 0.000411 ± 9.2e-05 s⁻¹.
With G51C U55C the figure was < 1e-05 s⁻¹; with A14C A52G C61A, < 1e-05 s⁻¹.
With U30G A33G C71G the figure was < 1e-05 s⁻¹; with C10G A42C U69G, < 1e-05 s⁻¹.
Take G43U U65G C68U: the “self-cleavage kobs at 10000 uM GlcN6P” value came out at 0.0019 ± 0.00044 s⁻¹.
As for C16A A64G C67G C70U, the “self-cleavage kobs at 10000 uM GlcN6P” value was < 1e-05 s⁻¹.
Consider C8U C10U G13C C50G G51U A52C C71A, for which the “self-cleavage kobs at 10000 uM GlcN6P” value was < 1e-05 s⁻¹.
Turning to G38U G40U G41C U47C G59C C68G, the “self-cleavage kobs at 10000 uM GlcN6P” value is < 1e-05 s⁻¹.
With A33U U45A U55C C71U, the “self-cleavage kobs at 10000 uM GlcN6P” value was < 1e-05 s⁻¹.
In the case of U31G U56C C58U, the “self-cleavage kobs at 10000 uM GlcN6P” value came to 6.36e-05 ± 1.2e-05 s⁻¹.
For the variant A14U C16G G32A U56G, the “self-cleavage kobs at 10000 uM GlcN6P” value came out at 0.000337 ± 5e-05 s⁻¹.
C8U A48U C71U: the “self-cleavage kobs at 10000 uM GlcN6P” value is < 1e-05 s⁻¹.
With U49A C70A, the “self-cleavage kobs at 10000 uM GlcN6P” value was < 1e-05 s⁻¹.
Take A39G G60A: the “self-cleavage kobs at 10000 uM GlcN6P” value was found to be 2.33e-05 ± 1.2e-05 s⁻¹.
For C10G A39U A48C the value was < 1e-05 s⁻¹; for G9U G35C A42C, < 1e-05 s⁻¹.
For G32U U57A C68G, the “self-cleavage kobs at 10000 uM GlcN6P” value was found to be 6.42e-05 ± 2.1e-05 s⁻¹.
With A12G U30G U47C U49C the figure was < 1e-05 s⁻¹; with C16A G41A G51C, < 1e-05 s⁻¹; with A12G G44U C58G, < 1e-05 s⁻¹.
Take A12G A14G G59C: the “self-cleavage kobs at 10000 uM GlcN6P” value turned out to be 0.000119 ± 3.7e-05 s⁻¹.
Take C8U U45A A48G C70G: the “self-cleavage kobs at 10000 uM GlcN6P” value is < 1e-05 s⁻¹.
Turning to A15U A33C C58A C68A, the “self-cleavage kobs at 10000 uM GlcN6P” value is < 1e-05 s⁻¹.
U56A U69C C71G: the “self-cleavage kobs at 10000 uM GlcN6P” value is 8.19e-05 ± 2e-05 s⁻¹.
Turning to C34G A64C C67A, the “self-cleavage kobs at 10000 uM GlcN6P” value was < 1e-05 s⁻¹.
A14G A36C U54A G63U: the “self-cleavage kobs at 10000 uM GlcN6P” value is < 1e-05 s⁻¹.
For the variant G7U C8G C16A, the “self-cleavage kobs at 10000 uM GlcN6P” value was < 1e-05 s⁻¹.
For the variant A15C G35C C50G, the “self-cleavage kobs at 10000 uM GlcN6P” value worked out at 4.99e-05 ± 1.2e-05 s⁻¹.
With U30C U55C C70U the figure was 8.64e-05 ± 1.7e-05 s⁻¹; with C11U U31G U54A, 0.0029 ± 0.0008 s⁻¹.
With G41A U45C A53U the figure was 0.000355 ± 8.4e-05 s⁻¹; with U31A C34U G44A, < 1e-05 s⁻¹; with U30G G62A C67A, < 1e-05 s⁻¹.
With A52G U57G U65C the figure was 6.98e-05 ± 1.2e-05 s⁻¹; with A6U U31C A36C, < 1e-05 s⁻¹.
As for C11G A14C G43U, the “self-cleavage kobs at 10000 uM GlcN6P” value is < 1e-05 s⁻¹.
Turning to G7U C50G G51A C70G, the “self-cleavage kobs at 10000 uM GlcN6P” value was determined as 6.12e-05 ± 1.7e-05 s⁻¹.
Turning to A12C G26A G41A U54G, the “self-cleavage kobs at 10000 uM GlcN6P” value was determined as 0.00044 ± 0.00012 s⁻¹.
For the variant C10A A14C U30G, the “self-cleavage kobs at 10000 uM GlcN6P” value is < 1e-05 s⁻¹.
With U30G U49A C68A the figure was < 1e-05 s⁻¹; with C50G G60A C71G, 0.000124 ± 3.5e-05 s⁻¹.
For the variant A15U G29C U47G U54A, the “self-cleavage kobs at 10000 uM GlcN6P” value was found to be 0.000122 ± 2.4e-05 s⁻¹.
For G26U U69A, the “self-cleavage kobs at 10000 uM GlcN6P” value was determined as 6.81e-05 ± 2.1e-05 s⁻¹.
Consider G9A A33U U69C, for which the “self-cleavage kobs at 10000 uM GlcN6P” value was < 1e-05 s⁻¹.
For C10U G37A G44A C70U, the “self-cleavage kobs at 10000 uM GlcN6P” value was < 1e-05 s⁻¹.
G41U C67U: the “self-cleavage kobs at 10000 uM GlcN6P” value amounted to 2.83e-05 ± 1.1e-05 s⁻¹.
On to U31G U47C U54A, for which the “self-cleavage kobs at 10000 uM GlcN6P” value turned out to be 0.00049 ± 8.9e-05 s⁻¹.
Regarding A6G G9U G35U G38A G40A, the “self-cleavage kobs at 10000 uM GlcN6P” value is < 1e-05 s⁻¹.
With U46C C68A the figure was 3.47e-05 ± 1e-05 s⁻¹; with A12U G40C G41U, 6.81e-05 ± 1.9e-05 s⁻¹; with C8U G29A U31G, < 1e-05 s⁻¹.
For G7C C10U G60U, the “self-cleavage kobs at 10000 uM GlcN6P” value is < 1e-05 s⁻¹.
For A52C C67A the value was 2.55e-05 ± 1.1e-05 s⁻¹.
Consider A39U A42G U46C, for which the “self-cleavage kobs at 10000 uM GlcN6P” value was determined as 0.00379 ± 0.00069 s⁻¹.
With G51A A52U G59A the figure was < 1e-05 s⁻¹; with C10G A14U C16A U54G C61U G62U, < 1e-05 s⁻¹; with A15U G21U, 0.00395 ± 0.00079 s⁻¹.
On to A42G U46G U56C, for which the “self-cleavage kobs at 10000 uM GlcN6P” value turned out to be 0.00095 ± 0.0002 s⁻¹.
For G43A C50A A64U the value was < 1e-05 s⁻¹; for A15G A33C U46G, 4.59e-05 ± 1.3e-05 s⁻¹; for A33C G35A U46G C50U U56G C71A, < 1e-05 s⁻¹.
On to G32U U45G U46C C67A, for which the “self-cleavage kobs at 10000 uM GlcN6P” value was 7.22e-05 ± 2e-05 s⁻¹.
